Experimental data published in article PMC12743511, “HSD17β11 regulates PLIN5-ATGL mediated lipolysis, but not hepatic lipid metabolism in mice” (Journal of Lipid Research, 2025).

Molecular target: T1, PLIN5-CFP (perilipin 5 fused to CFP) (UniProt Q00G26 1-463)
T1 construct: perilipin 5 (PLIN5); FRET donor; source: transiently transfected (Lipofectamine 3000), in live cells
T1 sequence (looked up): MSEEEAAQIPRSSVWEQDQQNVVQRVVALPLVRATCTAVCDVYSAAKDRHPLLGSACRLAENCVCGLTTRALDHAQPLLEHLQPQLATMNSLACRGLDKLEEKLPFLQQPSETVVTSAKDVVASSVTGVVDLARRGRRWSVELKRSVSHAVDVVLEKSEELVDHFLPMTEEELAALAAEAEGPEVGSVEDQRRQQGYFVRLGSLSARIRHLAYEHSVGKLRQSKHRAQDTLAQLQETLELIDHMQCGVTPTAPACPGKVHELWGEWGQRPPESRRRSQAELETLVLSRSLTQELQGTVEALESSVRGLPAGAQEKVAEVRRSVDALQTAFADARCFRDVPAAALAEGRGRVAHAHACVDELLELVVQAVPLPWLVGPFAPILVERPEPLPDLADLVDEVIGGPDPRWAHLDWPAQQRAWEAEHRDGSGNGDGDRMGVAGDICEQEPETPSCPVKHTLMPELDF
Assay: FRET or BRET; FLIM-FRET with phasor analysis in live transfected cells, CFP donor and YFP acceptor, 37°C, 5% CO2; basal and forskolin (PKA) stimulated; ATGL-CFP with PLIN5-YFP in WT and HSD^KO cells; read-out FRET ratio (pixels with FRET / pixels without)
Conditions: partners not purified

B1: HSD17β11-YFP (hydroxysteroid 17β dehydrogenase 11 fused to YFP) (natural protein, UniProt Q8NBQ5 1-300, looked up)
chain: MKFLLDILLLLPLLIVCSLESFVKLFIPKRRKSVTGEIVLITGAGHGIGRLTAYEFAKLKSKLVLWDINKHGLEETAAKCKGLGAKVHTFVVDCSNREDIYSSAKKVKAEIGDVSILVNNAGVVYTSDLFATQDPQIEKTFEVNVLAHFWTTKAFLPAMTKNNHGHIVTVASAAGHVSVPFLLAYCSSKFAAVGFHKTLTDELAALQITGVKTTCLCPNFVNTGFIKNPSTSLGPTLEPEEVVNRLMHGILTEQKMIFIPSSIAFLTTLERILPERFLAVLKRKISVKFDAVIGYKMKAQ
notes: hydroxysteroid 17β dehydrogenase 11 (HSD17β11), wild type; FRET acceptor; also called HSD^WT-YFP; source: transiently transfected (Lipofectamine 3000), in live cells
fold increase in FRET ratio over donor alone: 2.5 fold
